The values that follow come from patent publication US20180155451A1 (published 2018).

To fix the notation:
T1: FcγRIIb extracellular domain with C-terminal His tag (human, UniProt P31994 43-217)
T1 construct: extracellular domain; expressed in FreeStyle293 cells; analyte in the Biacore assay; also called FcgRIIb; 2b; not shown: His tag at the C terminus
T1 sequence (looked up): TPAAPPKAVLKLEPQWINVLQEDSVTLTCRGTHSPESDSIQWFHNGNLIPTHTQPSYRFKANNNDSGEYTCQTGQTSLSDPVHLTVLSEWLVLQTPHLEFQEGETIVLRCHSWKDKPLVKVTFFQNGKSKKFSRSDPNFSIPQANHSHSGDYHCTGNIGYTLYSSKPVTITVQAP

B1: GpH7-A5/GpH7-B3 variant K326_10E/GpL16-k0 (antibody, human IgG1, kappa)
heavy 1: not shown
heavy 2: not shown
light: DIVMTQSPLSLPVTPGEPASISCQASESLVHSNRNTYLHWYLQKPGQSPQLLIYKVSNRFSGVPDRFSGSGSGTDFTLKISRVEAEDVGVYYCSQNTHVPPTFGQGTKVEIERTVAAPSVFIFPPSDEQLKSGTASVVCLLNNFYPREAKVQWKVDNALQSGNSQESVTEQDSKDSTYSLSSTLTLSKADYEKHKVYACEVTHQGLSSPVTKSFNRGEC
notes: heterodimerized; mutation in the B3 H chain only; also called He Ab K326_10E
B2: GpH7-A5/GpH7-B3 variant K334_07I/GpL16-k0 (antibody, human IgG1, kappa)
heavy 1: not shown
heavy 2: not shown
light: B1 light
notes: heterodimerized; mutation in the B3 H chain only; also called He Ab K334_07I
B3: GpH7-A5/GpH7-B3 variant Y296_20W/GpL16-k0 (antibody, human IgG1, kappa)
heavy 1: not shown
heavy 2: not shown
light: B1 light
notes: heterodimerized; mutation in the B3 H chain only; also called He Ab Y296_20W
B4: GpH7-A5/GpH7-B3 variant V266_06M/GpL16-k0 (antibody, human IgG1, kappa)
heavy 1: not shown
heavy 2: not shown
light: B1 light
notes: heterodimerized; mutation in the B3 H chain only; also called He Ab V266_06M
B5: GpH7-A5/GpH7-B3 variant K334_10E/GpL16-k0 (antibody, human IgG1, kappa)
heavy 1: not shown
heavy 2: not shown
light: B1 light
notes: heterodimerized; mutation in the B3 H chain only; also called He Ab K334_10E
B6: GpH7-A5/GpH7-B3 variant P331_16H/GpL16-k0 (antibody, human IgG1, kappa)
heavy 1: not shown
heavy 2: not shown
light: B1 light
notes: heterodimerized; mutation in the B3 H chain only; also called He Ab P331_16H
B7: GpH7-A5/GpH7-B3 variant T335_15Y/GpL16-k0 (antibody, human IgG1, kappa)
heavy 1: not shown
heavy 2: not shown
light: B1 light
notes: heterodimerized; mutation in the B3 H chain only; also called He Ab T335_15Y
B8: GpH7-A5/GpH7-B3 variant K334_13S/GpL16-k0 (antibody, human IgG1, kappa)
heavy 1: not shown
heavy 2: not shown
light: B1 light
notes: heterodimerized; mutation in the B3 H chain only; also called He Ab K334_13S
B9: GpH7-A5/GpH7-B3 variant S239_10E/GpL16-k0 (antibody, human IgG1, kappa)
heavy 1: not shown
heavy 2: not shown
light: B1 light
notes: heterodimerized; mutation in the B3 H chain only; also called He Ab S239_10E
B10: GpH7-A5/GpH7-B3 variant L328_02A/GpL16-k0 (antibody, human IgG1, kappa)
heavy 1: not shown
heavy 2: not shown
light: B1 light
notes: heterodimerized; mutation in the B3 H chain only; also called He Ab L328_02A
B11: GpH7-A5/GpH7-B3 variant T335_10E/GpL16-k0 (antibody, human IgG1, kappa)
heavy 1: not shown
heavy 2: not shown
light: B1 light
notes: heterodimerized; mutation in the B3 H chain only; also called He Ab T335_10E
B12: GpH7-A5/GpH7-B3 variant T335_07I/GpL16-k0 (antibody, human IgG1, kappa)
heavy 1: not shown
heavy 2: not shown
light: B1 light
notes: heterodimerized; mutation in the B3 H chain only; also called He Ab T335_07I
B13: GpH7-A5/GpH7-B3 variant K334_14T/GpL16-k0 (antibody, human IgG1, kappa)
heavy 1: not shown
heavy 2: not shown
light: B1 light
notes: heterodimerized; mutation in the B3 H chain only; also called He Ab K334_14T
B14: GpH7-A5/GpH7-B3 variant K334_04F/GpL16-k0 (antibody, human IgG1, kappa)
heavy 1: not shown
heavy 2: not shown
light: B1 light
notes: heterodimerized; mutation in the B3 H chain only; also called He Ab K334_04F
B15: GpH7-A5/GpH7-B3 variant K326_15Y/GpL16-k0 (antibody, human IgG1, kappa)
heavy 1: not shown
heavy 2: not shown
light: B1 light
notes: heterodimerized; mutation in the B3 H chain only; also called He Ab K326_15Y
B16: GpH7-A5/GpH7-B3 variant K326_20W/GpL16-k0 (antibody, human IgG1, kappa)
heavy 1: not shown
heavy 2: not shown
light: B1 light
notes: heterodimerized; mutation in the B3 H chain only; also called He Ab K326_20W
B17: GpH7-A5/GpH7-B3 variant S337_16H/GpL16-k0 (antibody, human IgG1, kappa)
heavy 1: not shown
heavy 2: not shown
light: B1 light
notes: heterodimerized; mutation in the B3 H chain only; also called He Ab S337_16H
B18: GpH7-A5/GpH7-B3 variant K334_05P/GpL16-k0 (antibody, human IgG1, kappa)
heavy 1: not shown
heavy 2: not shown
light: B1 light
notes: heterodimerized; mutation in the B3 H chain only; also called He Ab K334_05P
B19: GpH7-A5/GpH7-B3 variant L328_13S/GpL16-k0 (antibody, human IgG1, kappa)
heavy 1: not shown
heavy 2: not shown
light: B1 light
notes: heterodimerized; mutation in the B3 H chain only; also called He Ab L328_13S
B20: GpH7-A5/GpH7-B3 variant K326_19Q/GpL16-k0 (antibody, human IgG1, kappa)
heavy 1: not shown
heavy 2: not shown
light: B1 light
notes: heterodimerized; mutation in the B3 H chain only; label printed K326_190, read as K326_19Q; also called He Ab K326_19Q
B21: GpH7-A5/GpH7-B3 variant K326_08L/GpL16-k0 (antibody, human IgG1, kappa)
heavy 1: not shown
heavy 2: not shown
light: B1 light
notes: heterodimerized; mutation in the B3 H chain only; also called He Ab K326_08L
B22: GpH7-A5/GpH7-B3 variant P238_09D/GpL16-k0 (antibody, human IgG1, kappa)
heavy 1: not shown
heavy 2: not shown
light: B1 light
notes: heterodimerized; mutation in the B3 H chain only; also called He Ab P238_09D
B23: GpH7-A5/GpH7-B3 variant K334_08L/GpL16-k0 (antibody, human IgG1, kappa)
heavy 1: not shown
heavy 2: not shown
light: B1 light
notes: heterodimerized; mutation in the B3 H chain only; also called He Ab K334_08L
B24: GpH7-A5/GpH7-B3 variant K334_03V/GpL16-k0 (antibody, human IgG1, kappa)
heavy 1: not shown
heavy 2: not shown
light: B1 light
notes: heterodimerized; mutation in the B3 H chain only; also called He Ab K334_03V
B25: GpH7-A5/GpH7-B3 variant P331_15Y/GpL16-k0 (antibody, human IgG1, kappa)
heavy 1: not shown
heavy 2: not shown
light: B1 light
notes: heterodimerized; mutation in the B3 H chain only; also called He Ab P331_15Y
B26: GpH7-A5/GpH7-B3 variant P238_04F/GpL16-k0 (antibody, human IgG1, kappa)
heavy 1: not shown
heavy 2: not shown
light: B1 light
notes: heterodimerized; mutation in the B3 H chain only; also called He Ab P238_04F
B27: GpH7-A5/GpH7-B3 variant S267_19Q/GpL16-k0 (antibody, human IgG1, kappa)
heavy 1: not shown
heavy 2: not shown
light: B1 light
notes: heterodimerized; mutation in the B3 H chain only; also called He Ab S267_19Q

The target of the assay is T1, FcγRIIb extracellular domain with …. The assay is described as follows: SPR (Biacore), captured antibody, FcγRIIb analyte; binding relative to GpH7-A5/GpH7-B3/GpL16-k0 = 100.
On to B1, for which the He/Con_2b was 200 % of control.
Regarding B2, the He/Con_2b was 119 % of control.
The figure for B3 is 103 % of control; for B4 it is 251 % of control.
As to B5, the He/Con_2b was 114 % of control.
Turning to B6, the He/Con_2b is 116 % of control.
Next, B7: 108 % of control.
Turning to B8, the He/Con_2b is 111 % of control.
Next, B9: 181 % of control; B10: 144 % of control; B11: 108 % of control.
B12: the He/Con_2b is 106 % of control.
For the molecule B13, the He/Con_2b is 115 % of control.
As for B14, the He/Con_2b is 111 % of control.
As for B15, the He/Con_2b is 159 % of control.
For B16, the He/Con_2b was 148 % of control.
Regarding B17, the He/Con_2b was 105 % of control.
Take B18: the He/Con_2b is 105 % of control.
As to B19, the He/Con_2b is 149 % of control.
As for B20, the He/Con_2b was 139 % of control.
Take B21: the He/Con_2b is 177 % of control.
As for B22, the He/Con_2b is 221 % of control.
The figure for B23 is 106 % of control; for B24 it is 125 % of control.
The figure for B25 is 114 % of control.
For B26, the He/Con_2b is 312 % of control.
B27: the He/Con_2b is 218 % of control.
